The series in a line: label from the status in PepcDB records.

19 sequences from a protein production outcome set (Wang et al. 2014) can be followed below.
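Note: failed if final PepcDB status was selected cloned or expressed and not failed if soluble or beyond.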

Consider “MYDSRGVALHSELIHRWNHAFSILSIVAFPKKRLLFAGSQDSKILVFDLPTYNLIHTIRLGESQEETHTRSSVLCLTGSEDENFLFSGGADSLVRIWSIGEKTIRDDFLPVTEIATVYSVTDIGDIFSLAYLDSLETIVFGCQNASLLYVENLIQKIEKKSSDGVENINKLPHRRYDKFFDSLGPTGYSSNSLSQTSLTSLQENCGAAIIEVPSENIIKYAHYGFIYSINKLCPRFNQLLEKSSRTSGAEHIISSAGDGISKLWEFSKDKGQNTVKISLINDKIDNEDSVISQTIEFPFLYCGLTDGIIKIWDLNTQQIISTLKTKHESDVISISVYMDHVFAIDESGITHFYQNQVNHWNPQQGKILSSEIFSKSNAGSVSLLTGGSDGSLTLWDITSLLSAVPLSSNSPINASSTLQTTNLWAAYQSASLNNEEMLNTLRELISFQTVSQSKDTTNTLSLRRCAIYLQQLFLKFGATNSQLFPLPDGGNPVVFAYFQGNGKVSQVKGAKKKRILWYGHYDVISSGNTFNWNTDPFTLTCENGYLKGRGVSDNKGPLVSAIHSVAYLFQQGELVNDVVFLVEGSEEIGSASLKQVCEKYHDIIGKDIDWILLSNSTWVDQEHPCLNYGLRGVINAQIKVWSDKPDGHSGLNGGVYDEPMVNLVKIVSKLQNEQNEIMIPNFYSPLKDLTEEEYQRFQKITELANIDENTTVQDLITNWTKPSLSMTTVKFSGPGNITVIPKSVTMGISIRLVPEQSVEQVKRDLKAYLEESFKQLKSQNHLEIKVLNEAEGWLGDPTNHAYQILKDEITTAWDVEPLLVREGGSISCLRMLERIFDAPAVQIPCGQSTDNGHLANENLRIKNWSNLTEILSKVFNRL”, for which the protein production entry was “failed”. In the case of “MYDWFSEMRKKDPVYYDGNIWQVFSYRYTKEVLNNFSKFSSDLTGYHERLEDLRNGKIRFDIPTRYTMLTSDPPLHDELRSMSADIFSPQKLQTLETFIRETTRSLLDSIDPREDDIVKKLAVPLPIIVISKILGLPIEDKEKFKEWSDLVAFRLGKPGEIFELGKKYLELIGYVKDHLNSGTEVVSRVVNSNLSDIEKLGYIILLLIAGNETTTNLISNSVIDFTRFNLWQRIREENLYLKAIEEALRYSPPVMRTVRKTKERVKLGDQTIEEGEYVRVWIASANRDEEVFHDGEKFIPDRNPNPHLSFGSGIHLCLGAPLARLEARIAIEEFSKRFRHIEILDTEKVPNEVLNGYKRLVVRLKSNE”, the protein production result is reported as “not failed”. Consider “MYEAHFGLKQLPFTLTPNTSLFHGLSPHYEAIHTVLSAISMGEGIIKVTGEVGTGKTLVCRMLINELPSNVELLYLPNPVMNGHELRQALAKELWLDQSGDDIALIDRIHEKIIDLHAEGKLVVVFIDEAQALSDEALETLRLFGNLETDYKKLLQIVLFGQPELDERLQQHNLRQLRQRITFSALLRALNMNETVAYIRYRIAESGCENNPFSLVQMKAIWKATNGIPRLINQVCHKSLLIAFSEQVNNVPSKAVFNAIIDTADTVKPKHYFPTFWGWRVSLEHHHHHH”, for which the protein production entry is given as “not failed”. For “MYEEWKIVKREAPILGNDQLIENIWKMKREDSPYDIISLHKVNLIGGGNDAVLILPGTWSSGEQLVTISWNGVHYTIPDYRKSIVLYLARNGFNVYTIDYRTHYVPPFLKDRQLSFTANWGWSTWISDIKEVVSFIKRDSGQERIYLAGESFGGIAALNYSSLYWKNDIKGLILLDGGPTKHGIRPKFYTPEVNSIEEMEAKGIYVIPSRGGPNNPIWSYALANPDMPSPDPKYKSISDFLMDSLYVTGSANPYDYPYSKKEDMFPILASFDPYWPYRLSLERDLKFDYEGILVPTIAFVSERFGIQIFDSKILPSNSEIILLKGYGHLDVYTGENSEKDVNSVVLKWLSQQR”, the protein production entry is “not failed”. Then “MYESANVSDDADRTAFRRAEKKYKLYYEQDSKFSRKKKLPKPIDLSELLDFNLISQNFNNDGVLPDGIRVSKVDSSPVFCIDNRPGFYFIPDALSLKEQCKWIKESLTSFPQPPNRTNHNAIYGPIDDLFDSAKENKVLVQDDLTNNKWKFYEEVDIEKATRSSCKSVSASVLLRKLRWSTLGLQFDWSKRNYDVSLPHNNIPDALCQLAKTHAAIAMPDGEEFRPEGAIVNYFGIGDTLGGHLDDMEADWSKPIVSMSLGCKAIFLLGGKSKDDPPHAMYLRSGDVVLMAGEARECFHGNLLHFQLDGIPRIFTGEENADIGALESELSHESGHFFAEYIKTSRININIRQVF”, with “failed”; and “MYEVELKGYANDEIFEKVRETFEFMRKEIHEDIYYQHPCRDFSKTDEALRIRIKRFNGHNEVFLTYKGPKIDEKSKTRLEIEVEIQEDVDKYFELLDRLGFKEVLKVVKTREKYYVEKGVTITLDEVEGLGKFIEIETLVKEKDEIPEAVEKLEKILRELGVEKFERRSYLELLLEKRTELNI”, with “not failed”.

As to “MYFFVPTANSKINQMIFYLSSMNLDMIKEYILSFGIWAPITSFLLMVLQSVIAPIPAFLITLSNAAIFGWVKGAILSWSSAMAGAALCFYIARGLGRDAVEKLTSKFALKDIDGFFEKYGKHTILIARLLPFISFDLVSYAAGLTSMNFWSFFIATGIGQLPATIVYSYVGGMLTGGAQLLMSGLLILFALSIAIYVGKKVWNEKRGKNDK”, the protein production entry was “failed”. For “MYFLVTTLGVGFYLMKRMEKSEEDYLVAKRGLGAVPVGVTLALTVLGTPHILGVMESAYDIGLPAVWFSFAHAIMLAIVCLFTGRWARKLKVESVPEFLDVIFSNYWLRLMVGAVIAGAIFGICTLETQGLGVFVSILTGTSIEVGIVIGALIGILYVVLSGMKEVAWLNVLNAVILYIGIIAATFVLGSGLQNGWEGVNEFYISNDLAGKLNIFGSWEVFVGFALVNVLATVFFQGISQQGLHAALAAKSPDVLRKAMLIAVPVNGSFAVFAAVMGMAARATPEFAELGAKTATPAMIVSVLPTWASALLLATCLVAVLSSYAITLLAPTTIFVNDIYKAVLKPNASHEELLRLSRILTVLLAVAALIPAVSLPPILAAMMWLFSWLVPVFWFVIFGLFWKRSAPAAIITCLLVWVTINAWTMTPLPEVLGAPGWLHQVYLALIVTLVIGSLLNAVLPGKPGLFREKALAVRG”, the protein production result is “failed”. In the case of “MYGISVFLGEEITNDTIIYIKKMKALGFDGIFTSLHIPEDDTSLYRQRLTDLGAIAKAEKMKIMVDISGEALKRAGFSFDELEPLIELGVTGLRMDYGITIEQMAHASHKIDIGLNASTITLEEVAELKAHQADFSRLEAWHNYYPRPETGIGTTFFNEKNRWLKELGLQVFTFVPGDGQTRGPIFAGLPTLEKHRGQNPFAAAVGLMADPYVDAVYIGDPTISERTMAQFGYYHQTNQFLLEVAPSESRYLKRILGTHTNRLDAARDVLRSELSRTSEMFRKDEIATIESEQTEARPVGTVTIDNEKYGRYMGEIQVTLVDLPKDEKVNTITRIIEKDQTILPLIKAGNQFTLVTEGTIENEFRKLNN”, the protein production entry is “not failed”. “MYGRKGYQLIKDFATGEKGQLKPFNSKLFDETIEECDQNHHLIQSLIRKMQQEGLDVQNNRNADHYGALIHHLALIRNKRCLMAYVYNRAEIVRDLAWRVGLELLDLPSEIQEKLTTLEKEYFKNHSVALKSYMGKVGIELNVDMVPPKDPYIKVRILDDIDEGIVLSDKTTNFARHSMHFLKRTDAEPYIARGQMEELTG”: the protein production result is on record as “failed”. As for “MYIEMAQQQQQSGSDNSMAPVWIVILLFITAYFVWALAHQYIVSFVFTINIWQARLVNLFLNNQLLANQIYLMQTLDPNTVNWDQMVTVMRAVGDYMRYPVICILVVLAFVLYNSNVTLKYRKTYDMKSLRAQEQFNWPAIMPIVKEDLVSQDVNKGPWAMALTPMEFARKYNLLRKDDALLDNPVPGEEMTAGIRRGDAKRVFTMQLGPYWDGFERCSPQAYALSAVFMARMNRDRDAANNILKVLDKTFVDGKPDFSVARPVMKKYQNSELVQEVVAKHAYVLTVIASLLEAAREDGVVPSSEFLWLKPVDRRLWYMLNCVGRQTPYSEVAGPFAHWKAEKEMGRRSLVPMIDEAIRALEIAVKEVRLTPRQMEELEP”, the protein production entry is reported as “failed”. “MYIQPLNPTGNVGLTILASLTPIIALLILLAGLRITAWLATLIGSIITILVATFVWGTPIIQVSYAWLIGALVGTWAISWIVFWGLTIYNTLVLTGKFDAFRDWIVRNSTNDARVQAIVLAWSLGALFEGLVGFGYPWAFIAPLLIYLGFDDLKALQVSALANNAPVSFGALGTPIIILASVTGLPLLFISSSVAKVVAILALLPPWILLYLVDKWRGIREAWPIAILGSLSYILGQYPVASFIGPYLPDITGSLISFVILLLFLRVWRPKRVLSLRSVQPNGGESKKYSTKDVIEALSAFIVLIIVVTLWTGPWSPLTKFSLVTLSQTAYSSLLHKNVGVSFAFNPFVAGTSILVSWIIISLVLRASPRIMGEAIKRSFHQYWGGILTGIFVVGLAYVFNFSGMAYSLAWKTSDLGIAFIIVSPLFGWIGCALSGSNTSTNALFGAFQVTTARLTGLPVGLPPALNSVGAELAKPVAPQTASAGVSTTKYVRKEGIVIRKNLPWAIGILIYLILIGVLYAFLAPSLFVH”: the protein production entry is reported as “failed”. In the case of “MYIRGVGDIIYFLQQLHPLEQALLAGIFTWGMTALGAASVFFTREVSRKVLDSMLGFTAGVMIAASYWSLLAPAIEMSEGRSIPAWLPAVLGFLLGGLFLRGIDKILPHLQFGSATEAAEGLKTSWRRNTLLVLAVTLHNIPEGLAVGVAFGAAASGYMYSLPAAIALTTGIGIQNFPEGLVVSVPLRREGMSCFKSFNYGQASAIVEPIASVIGVAAVMLVRPILPYALAFAAGAMIFVVVEEIIPESQHGGNAPLATIGTMIGFSVMMVLDVAFG”, the protein production result is recorded as “failed”. On to “MYKGYKIGVAVPAYNEEKLIGETLKGIPPFVDRIYVVDDASKDNTSKVVEEMMRHDKRIVLIRHAKNKGVGGAIVSGWKKGLEEGMDILAVMAGDNQMDPRDLPALLDPIVEGKVDFTKGNRFLLSYDLKMSYWRRFGTFLLTILTKIASGYWHINDPQNGYVAIKADALRKIDLDKLDSGYFFENDLLIKASVANLRVVNVPVKIRYKIGEKSKIKYSKFIARTSWLLLRSFLWRIWVEYVKRRKFLGFLYLLGFTLIVTSFLIFLIYPTRLEIPLIVLLAGAAIFLGSCIKEKNLKQYLK”, for which the protein production result was “failed”.

For “MYKIDEVTKQVGLTKRTLRYYEEIGLIHPPERSEGNIRLYTDEDIARIKRIVEAKEVLGITLQEMQHFLSLKERMEQRRNSENPRDREVIQEIKEMLEKQVQTLDEKMEQMQRVKGELEDSLHRAVTFLENTKGE”, the protein production entry is “failed”.

In the case of “MYKILIVEDDPNISSLLQSHIQKYGYEAVVAENFDDIMESFNAVKPHLVLLDVNLPKFDGFYWCRQIRHESTCPIIFISARAGEMEQIMAIESGADDYITKPFHYDVVMAKIKGQLRRIYGDYAPNISERIVEVEGLKLFPERPEIHFGSEQVLLTKKEAILAEMLLSKFPRTASREDLLAALWDDESFVEENTLNVNITRLRKKFNELGIENAIETVRGLGYRFNATWSE”, the protein production entry was “failed”. Then “MYKLISPHLSGHAMWKEALEEFGSGPIHGSGYFENYLPIDYSEAGFHHYLKERTDAADPSVPPPEGFVHCSYFWIVDDDDVLVGFLALRHELNQHLLEVAGHIGYGVRPSARRKGAATAALKLGVHEAQALGIDKVLLCVAGDNEASRNVIEKCGGVYESTIRGMRRYWIATDS”, with “failed”; and “MYLAEALAQRVEAQRRYSELNQLLLDVAKVQEGDQPAENPHEILTELEELTTRINDLVRRINRTNSVTEFSEGMTLADALSVRDALLKKRTLYSDLADQLTSRQDRYSRSEIKYVATMDAREIRKKADLAAKEYRQLDVDIQRLNWQTELQ”, with “failed”. On to “MYLISELAVKAGLSRTTLLYYEKLGLIRGQRLDNGYRYYNESDLQQLFLIQQLQSAGLSLKECEECLQAKLDRTLLERRLSQLDDEIEKKVRARELLLALLGERPQRELHHSLSKHAPNAYLSWLNTQGYSEKEALRLKWLSKDMNEHDIYMQDFMTVFASLQHWGPGSEQDSLKAISLMSMQNMQHILDIGCETGLSTLLLAENSSAHITAVDNEPIAIEQLEKQRQHSPWKEQISPVLGSMTALPFAAKSFDAIWAEGCVYIMGMENALKQWKPFLADNAILMVSDLVWLTENPKPEAQEFWQSEYPDIQSIPSRIKLFKKLGYEVMEHFSLGIDAWQNYWLPLQNRVQELKLRLTNSQALSDIEKEIAIYERSAAKDFTYQYFVLKLNH”, for which the protein production result was “failed”.
